Ki, Log Ki and del/mu (ratio of Ki data for one substance are collected here from patent US20250296958A1, “GL[…] E[…]” (THE ADMINISTRATORS OF THE TULANE EDUCATIONAL FUND, priority 2022, published 2025).

Test [1] deals with delta opioid receptor (UniProt P41143). Briefly: PDSP receptor binding.
Test [2] shares this target. Briefly: PDSP receptor binding; log of Ki in M.
The target is the same in test [3]. Briefly: PDSP receptor binding, selectivity against MOR.

pKi: −log10 of the molar value.

As usually defined, the pKi is the negative decadic logarithm of the Ki, by convention in mol/L. Read a high pKi as a low Ki. In the case of ZH853 (peptide), in the test with delta opioid receptor [1], the negative-log Ki (pKi) was 6.57. This substance also yielded a Log Ki with delta opioid receptor [2] of -6.57. Moreover, the del/mu (ratio of Ki at DOR to Ki at MOR) with delta opioid receptor [3] amounted to 291.
